We go through 10 molecules from patent US20120269817A1 (Bayer, published 2012).

Test [1] deals with T1, human tissue factor pathway inhibitor (TFPI) (human, UniProt P10646 29-304, limits assumed).
T1 sequence (looked up): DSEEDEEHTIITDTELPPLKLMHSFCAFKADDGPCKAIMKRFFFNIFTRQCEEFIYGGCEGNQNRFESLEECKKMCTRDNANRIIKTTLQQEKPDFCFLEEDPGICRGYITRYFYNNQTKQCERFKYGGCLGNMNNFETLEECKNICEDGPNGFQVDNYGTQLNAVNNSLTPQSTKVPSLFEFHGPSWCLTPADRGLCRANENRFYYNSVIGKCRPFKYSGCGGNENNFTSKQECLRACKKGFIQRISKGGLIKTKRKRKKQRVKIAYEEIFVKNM
As to the kind of experiment: cell-based or functional assay.

In test [2] the target is T2, mouse tissue factor pathway inhibitor (TFPI) (mouse, UniProt O54819 29-289, limits assumed).
T2 construct: Bought protein; also called mouse TFPI; mTFPI
T2 sequence (looked up): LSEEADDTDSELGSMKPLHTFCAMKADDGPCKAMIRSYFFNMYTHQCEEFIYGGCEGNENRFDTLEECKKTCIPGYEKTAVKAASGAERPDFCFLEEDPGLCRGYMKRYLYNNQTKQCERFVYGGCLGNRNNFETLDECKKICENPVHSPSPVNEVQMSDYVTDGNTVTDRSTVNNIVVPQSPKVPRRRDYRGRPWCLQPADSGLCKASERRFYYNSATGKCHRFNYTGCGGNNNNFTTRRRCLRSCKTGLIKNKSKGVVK
The experiment in a line: ELISA, Fab on coated TFPI. The procedure: (§1) To select antibody clones that bind to human TFPI, Fab genes of the phage clones from the second and third round of panning were subcloned into a bacterial expression vector and expressed in E. coli strain TG1. The bacterial lysate was added to the wells of the human TFPI-coated Maxisorp plates. After washing, HRP-conjugated goat anti-human Fab was used as a detection antibody and the plates were developed by adding AmplexRed (Invitrogen) with hydrogen peroxide. A signal of at least five-fold higher than the background was considered as positive. The cross reactivity of the anti-human TFPI antibodies to mouse TFPI was determined by a similar mouse TFPI-binding ELISA. The plates were coated with mouse TFPI (R&D System), BSA and lysozyme. The later two antigens were used as negative controls.
(§2) Purified Fab antibodies were used to determine EC₅₀ of anti-TFPI antibodies to human or mouse TFPI. EC₅₀ was assessed in an ELISA, similarly as described above. The results were analyzed using SoftMax. The binding affinity of anti-TFPI antibodies was determined in a Biacore assay. Briefly, the antigen, either human or mouse TFPI, was immobilized on the CM5-chips using the amine coupling kit (GE HealthCare) according to the instructions of the manufacturer. The amount of immobilized TFPI was adjusted to the mass of the antigen to give approximate 300 RU. The antibody Fabs were analyzed in mobile phase and at least five different concentrations (0.1, 0.4, 1.6, 6.4 and 25 nM) of the purified antibodies were used in the Biacore assay. The kinetics and binding affinity were calculated using Biacore T100 Evaluation software.
(In an ELISA, binding on a coated surface is turned into a signal by an enzyme label.)

Test [3] addresses T1, human tissue factor pathway inhibitor …. The experiment in a line: ELISA, Fab on coated TFPI. The procedure: as §1, §2
A further test has as its target T3, BSA (bovine, UniProt P02769 25-607).
T3 construct: also called bovine serum albumin
As to the kind of experiment: ELISA. The procedure:
as §1

Test [4] has as its target T2, mouse tissue factor pathway inhibitor …. As to the kind of experiment: Biacore, TFPI on CM5 chip, Fab in mobile phase. The procedure: as §2
Test [5] deals with T1, human tissue factor pathway inhibitor …. As to the kind of experiment: Biacore, TFPI on CM5 chip, Fab in mobile phase. The procedure: as §2
A general note: SPR reads the build-up and loss of mass on a sensor chip optically.

T3 sequence (P02769 25-607 limits assumed): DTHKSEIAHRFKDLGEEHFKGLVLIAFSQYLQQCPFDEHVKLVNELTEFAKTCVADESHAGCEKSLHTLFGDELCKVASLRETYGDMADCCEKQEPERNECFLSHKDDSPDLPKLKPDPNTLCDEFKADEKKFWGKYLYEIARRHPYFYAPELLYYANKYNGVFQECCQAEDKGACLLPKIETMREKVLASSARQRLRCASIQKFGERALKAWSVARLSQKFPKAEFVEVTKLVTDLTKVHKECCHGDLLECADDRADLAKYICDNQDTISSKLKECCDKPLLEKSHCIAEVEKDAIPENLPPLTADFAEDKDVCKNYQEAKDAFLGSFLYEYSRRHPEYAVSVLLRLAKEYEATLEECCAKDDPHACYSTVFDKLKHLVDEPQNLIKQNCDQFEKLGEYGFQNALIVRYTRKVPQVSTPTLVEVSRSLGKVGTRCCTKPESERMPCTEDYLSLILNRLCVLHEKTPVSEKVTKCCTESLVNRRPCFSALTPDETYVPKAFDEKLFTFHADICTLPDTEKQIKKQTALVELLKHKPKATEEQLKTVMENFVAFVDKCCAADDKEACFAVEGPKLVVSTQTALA

B1: TP-3C1 Fab (Fab, V domains shown)
VH: QVQLVESGGGLVQPGGSLRLSCAASGFTFSSYSMHWVRQAPGKGLEWVSGISYSSSFTYYADSVKGRFTISRDNSKNTLYLQMNSLRAEDTAVYYCARALGGGVDYWGQGTLVTVSS
VL: DIALTQPASVSGSPGQSITISCTGTSSDLGGFNTVSWYQQHPGKAPKLMIYSVSSRPSGVSNRFSGSKSGNTASLTISGLQAEDEADYYCQSYDLNNLVFGGGTKLTVLG
notes: Human Fab from HuCal Gold, expressed in E. coli TG1; Shares its VL with TP-2G9 and its VH with TP-3F2
What is called EC50 is the concentration giving half of the maximal effect. Lower therefore signals higher potency in that assay. A word on the Kd: it is the free concentration of one partner at which half of the binding sites on the other are occupied at equilibrium, for simple one-to-one binding. Read a high Kd as weaker binding. On to B1, for which, in test [1], the “% inhibition of hTFPI activity” value worked out at 0%. The “dPT in hemoA plasma” value in test [1] was found to be 72.3 s. For the same molecule, the EC50 in test [2] was found to be 108 nM; in test [3], 32.8 nM. Besides, the binding result in the test with BSA is reported as “no binding”. Also, the Kd stood at 33.6 nM in test [4] and 21.6 nM in test [5].

B2: TP-2G9 Fab (Fab, V domains shown)
VH: QVQLVESGGGLVQPGGSLRLSCAASGFTFNSYAMTWVRQAPGKGLEWVSAIKSDGSNTYYADSVKGRFTISRDNSKNTLYLQMNSLRAEDTAVYYCARNDSGWFDVWGQGTLVTVSS
VL: DIALTQPASVSGSPGQSITISCTGTSSDLGGFNTVSWYQQHPGKAPKLMIYSVSSRPSGVSNRFSGSKSGNTASLTISGLQAEDEADYYCQSYDLNNLVFGGGTKLTVLG
notes: Human Fab from HuCal Gold, expressed in E. coli TG1
In the case of B2, in test [1], the “% inhibition of hTFPI activity” value worked out at 0%. For the same molecule, the “dPT in hemoA plasma” value in test [1] worked out at 82.7 s. The EC50 in test [2] was 194 nM; in test [3] it was 10.8 nM. Besides, the binding result with BSA is recorded as “no binding”. For the same molecule, the results for the Kd in test [4] and in test [5] were 35.7 nM and 48.5 nM, respectively.

B3: TP-4B7 Fab (Fab, V domains shown)
VH: QVQLQQSGPGLVKPSQTLSLTCAISGDSVSSNSAAWSWIRQSPGRGLEWLGIIYKRSKWYNDYAVSVKSRITINPDTSKNQFSLQLNSVTPEDTAVYYCARWHSDKHWGFDYWGQGTLVTVSS
VL: DIVMTQSPLSLPVTPGEPASISCRSSQSLVFSDGNTYLNWYLQKPGQSPQLLIYKGSNRASGVPDRFSGSGSGTDFTLKISRVEAEDVGVYYCQQYDSYPLTFGQGTKVEIKR
notes: as for B2
For B3, in test [1], the “% inhibition of hTFPI activity” value stood at 100%. In addition, the “dPT in hemoA plasma” value in test [1] was 53.9 s. Besides, the EC50 in test [2] was 2.64 nM; in test [3], 0.74 nM. Besides, the binding result with BSA is reported as “no binding”. Further, the Kd in test [4] came out at 51.8 nM; in test [5], 15.8 nM.

B4: TP-2C7 Fab (Fab, V domains shown)
VH: QVQLQQSGPGLVKPSQTLSLTCAISGDSVSSNSAAWGWIRQSPGRGLEWLGIIYYRSKWYNHYAVSVKSRITINPDTSKNQFSLQLNSVTPEDTAVYYCARSNWSGYFDYWGQGTLVTVSS
VL: DIQMTQSPSSLSASVGDRVTITCRASQDIRNNLAWYQQKPGKAPKLLIYAASSLQSGVPSRFSGSGSGTDFTLTISSLQPEDFAVYYCQQRNGFPLTFGQGTKVEIKR
notes: as for B2
As to B4, the “% inhibition of hTFPI activity” value in test [1] came to 0%. For the same molecule, the “dPT in hemoA plasma” value in test [1] amounted to 62.5 s. Also, the EC50 in test [2] and in test [3] was 0.6 nM in each case. Moreover, the binding result with BSA was “no binding”. Besides, the Kd in test [4] came to 9.33 nM; in test [5], 2.01 nM.

B5: TP-3A4 Fab (Fab, V domains shown)
VH: QVQLVESGGGLVQPGGSLRLSCAASGFTFSSYWMHWVRQAPGKGLEWVSSISYDSSNTYYADSVKGRFTISRDNSKNTLYLQMNSLRAEDTAVYYCARYGGMDYWGQGTLVTVSS
VL: DIELTQPPSVSVAPGQTARISCSGDNLRDKYASWYQQKPGQAPVLVIYSKSERPSGIPERFSGSNSGNTATLTISGTQAEDEADYYCSSYTLNPNLNYVFGGGTKLTVLG
notes: as for B2
In the case of B5, in test [1], the “% inhibition of hTFPI activity” value turned out to be 0%. Also, the “dPT in hemoA plasma” value in test [1] stood at 72.3 s. For the same molecule, the EC50 amounted to 327 nM in test [2] and 42.8 nM in test [3]. In the test with BSA, the binding result is given as “no binding”. Moreover, the results for the Kd in test [4] and in test [5] were 23.7 nM and 21.6 nM, respectively.

B6: TP-2A2 Fab (Fab, V domains shown)
VH: QVQLVESGGGLVQPGGSLRLSCAASGFTFSNNAMNWVRQAPGKGLEWVSTISYDGSNTYYADSVKGRFTISRDNSKNTLYLQMNSLRAEDTAVYYCARQAGGWTYSYTDVWGQGTLVTVSS
VL: DIELTQPPSVSVAPGQTARISCSGDNIRTYYVHWYQQKPGQAPVVVIYGDSKRPSGIPERFSGSNSGNTATLTISGTQAEDEADYYCQSYDSEADSEVFGGGTKLTVLG
notes: as for B2
As to B6, the “% inhibition of hTFPI activity” value in test [1] came out at 23%. The “dPT in hemoA plasma” value in test [1] was 70.9 s. The figures for the EC50 in test [2] and in test [3] were 1040 nM and 0.62 nM, respectively. Further, the binding result with BSA is recorded as “no binding”. The figures for the Kd in test [4] and in test [5] were 29.8 nM and 6.57 nM, respectively.

B7: TP-2B3 Fab (Fab, V domains shown)
VH: QVQLQQSGPGLVKPSQTLSLTCAISGDSVSSNSAAWGWIRQSPGRGLEWLGMIYYRSKWYNSYAVSVKSRITINPDTSKNQFSLQLNSVTPEDTAVYYCARTMSKYGGPGMDVWGQGTLVTVSS
VL: DIVLTQSPATLSLSPGERATLSCRASQNIGSNYLAWYQQKPGQAPRLLIYGASTRATGVPARFNGSGSGTDFTLTISSLEPEDFAVYYCQQLNSIPVTFGQGTKVEIKR
notes: as for B2
In the case of B7, the “% inhibition of hTFPI activity” value in test [1] was 100%. Moreover, the “dPT in hemoA plasma” value in test [1] worked out at 74 s. Further, the EC50 in test [2] amounted to 20.2 nM; in test [3], 0.84 nM. Further, the binding result with BSA is given as “no binding”. For the same molecule, the Kd in test [4] is 27 nM; in test [5], 7.4 nM.

B8: TP-2E5 Fab (Fab, V domains shown)
VH: QVQLQQSGPGLVKPSQTLSLTCAISGDSVSSNSAAWSWIRQSPGRGLEWLGMIFYRSKWNNDYAVSVKSRITINPDTSKNQFSLQLNSVTPEDTAVYYCARVNANGYYAYVDLWGQGTLVTVSS
VL: DIQMTQSPSSLSASVGDRVTITCRASQPIYNSLSWYQQKPGKAPKLLIYGVSNLQSGVPSRFSGSGSGTDFTLTISSLQPEDFAVYYCLQVDNLPITFGQGTKVEIKR
notes: as for B2
For B8, the “% inhibition of hTFPI activity” value in test [1] stood at 0%. In addition, the “dPT in hemoA plasma” value in test [1] was found to be 79 s. Besides, the EC50 in test [2] came to 202 nM; in test [3], 792 nM. Moreover, the binding result with BSA is on record as “no binding”. In addition, the Kd in test [4] stood at 25.2 nM; in test [5], 115 nM.

B9: TP-3B4 Fab (Fab, V domains shown)
VH: QVQLQQSGPGLVKPSQTLSLTCAISGDSVSSNGAAWGWIRQSPGRGLEWLGHIYYRSKWYNSYAVSVKSRITINPDTSKNQFSLQLNSVTPEDTAVYYCARWGGIHDGDIYFDYWGQGTLVTVSS
VL: DIQMTQSPSSLSASVGDRVTITCRASQNISNYLNWYQQKPGKAPKLLIYGTSSLQSGVPSRFSGSGSGTDFTLTISSLQPEDFAVYYCQQYGNNPTTFGQGTKVEIKR
notes: as for B2
As to B9, the “% inhibition of hTFPI activity” value in test [1] turned out to be 25%. For the same molecule, the “dPT in hemoA plasma” value in test [1] came to 69.1 s. Moreover, the concentration for a half-maximal effect (EC50) amounted to 34.6 nM in test [2] and 35.8 nM in test [3]. The binding result with BSA is “no binding”. Also, the Kd was 20.4 nM in test [4] and 14.1 nM in test [5].

B10: TP-3G3 Fab (Fab, V domains shown)
VH: QVQLVESGGGLVQPGGSLRLSCAASGFTFSSYSMSWVRQAPGKGLEWVSSISSSSSNTYYGDSVKGRFTISRDNSKNTLYLQMNSLRAEDTAVYYCARMHYKGMDIWGQGTLVTVSS
VL: DIQMTQSPSSLSASVGDRVTITCRASQNIHSHLNWYQQKPGKAPKLLIYDASSLQSGVPSRFSGSGSGTDFTLTISSLQPEDFAVYYCQQYYDYPLTFGQGTKVEIKR
notes: as for B2
Regarding B10, in test [1], the “% inhibition of hTFPI activity” value was 15%. Moreover, the “dPT in hemoA plasma” value in test [1] worked out at 70.7 s. The EC50 was found to be 47.1 nM in test [2] and 33.6 nM in test [3]. Besides, the binding result with BSA was “no binding”. Also, the Kd in test [4] is 25.7 nM; in test [5] it was 16 nM.
